Measured values as given in the supplement of paper PMC9112550, “Optimization of the antimicrobial peptide Bac7 by deep mutational scanning” (BMC Biology, 2022).

Tested on: Escherichia coli TOP10
Experiment: shrunken log2 fold change of peptide-encoding DNA abundance (4.5 h post-induction vs induction); higher = less antimicrobial activity (less host growth inhibition)
Conditions: time post-induction: 4.5 h; library: site-saturation at positions 5, 18, 19, 20
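Further: peptides expressed intracellularly from a pBAD plasmid library in pooled LB shake-flask culture, induced with 0.3% L-arabinose, DNA abundance read by NGS, three biological replicates, DESeq2 with apeglm shrinkage.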

| Sequence | shrunken log2 fold change |
| --- | --- |
| RRIRMRPPRLPRPRPRPTCIPRP | -0.00872 |
| RRIRERPPRLPRPRPRPCNMPRP | -0.101 |
| RRIRARPPRLPRPRPRPWRCPRP | 0.0472 |
| RRIRMRPPRLPRPRPRPPQMPRP | 0.594 |
| RRIRMRPPRLPRPRPRPPTLPRP | 0.256 |
| RRIRVRPPRLPRPRPRPTRDPRP | 0.472 |
| RRIRSRPPRLPRPRPRPVFNPRP | -0.709 |
| RRIRLRPPRLPRPRPRPFPIPRP | -0.0478 |
| RRIRMRPPRLPRPRPRPYLKPRP | -0.00107 |
| RRIRHRPPRLPRPRPRPPFGPRP | -0.0898 |
| RRIRRRPPRLPRPRPRPQHAPRP | 0.314 |
| RRIRNRPPRLPRPRPRPAINPRP | 0.0991 |
| RRIRKRPPRLPRPRPRPGVKPRP | 0.0127 |
| RRIRHRPPRLPRPRPRPRNEPRP | -0.588 |
| RRIRCRPPRLPRPRPRPDIMPRP | -0.0409 |
| RRIRRRPPRLPRPRPRPFEDPRP | -0.0157 |
| RRIRKRPPRLPRPRPRPPPNPRP | 0.982 |
| RRIRSRPPRLPRPRPRPLTMPRP | -0.242 |
| RRIRRRPPRLPRPRPRPLEAPRP | 0.404 |
| RRIRARPPRLPRPRPRPLFCPRP | 0.00332 |
| RRIRARPPRLPRPRPRPNRLPRP | 0.0862 |
| RRIRMRPPRLPRPRPRPWGRPRP | 0.389 |
| RRIRKRPPRLPRPRPRPNHSPRP | -0.321 |
| RRIRRRPPRLPRPRPRPAIHPRP | 0.131 |
| RRIRIRPPRLPRPRPRPWSEPRP | -0.0763 |

| Sequence | shrunken log2 fold change |
| --- | --- |
| RRIRNRPPRLPRPRPRPTSSPRP | 0.211 |
| RRIRNRPPRLPRPRPRPRTDPRP | 0.089 |
| RRIRGRPPRLPRPRPRPDAMPRP | 2.4 |
| RRIRERPPRLPRPRPRPAHGPRP | 0.131 |
| RRIRPRPPRLPRPRPRPICCPRP | -0.139 |
| RRIRWRPPRLPRPRPRPRFMPRP | -0.17 |
| RRIRHRPPRLPRPRPRPCYNPRP | -0.427 |
| RRIRGRPPRLPRPRPRPATAPRP | 0.979 |
| RRIRSRPPRLPRPRPRPATTPRP | 0.584 |
| RRIRIRPPRLPRPRPRPGCIPRP | -0.523 |
| RRIRSRPPRLPRPRPRPDRMPRP | -0.129 |
| RRIRRRPPRLPRPRPRPEKHPRP | 0.121 |
| RRIRRRPPRLPRPRPRPIYYPRP | -0.192 |
| RRIRGRPPRLPRPRPRPFAYPRP | 0.184 |
| RRIRGRPPRLPRPRPRPMLSPRP | 0.393 |
| RRIRARPPRLPRPRPRPDRHPRP | 0.0379 |
| RRIRPRPPRLPRPRPRPEFNPRP | 0.0717 |
| RRIRARPPRLPRPRPRPAMDPRP | 0.568 |
| RRIRPRPPRLPRPRPRPPFRPRP | 0.529 |
| RRIRDRPPRLPRPRPRPVYGPRP | -0.322 |
| RRIRERPPRLPRPRPRPWVDPRP | -0.665 |
| RRIRCRPPRLPRPRPRPSKRPRP | -0.12 |
| RRIRYRPPRLPRPRPRPNPLPRP | -0.766 |
| RRIRNRPPRLPRPRPRPGMHPRP | -0.015 |
| RRIRVRPPRLPRPRPRPRWMPRP | -0.0415 |

| Sequence | shrunken log2 fold change |
| --- | --- |
| RRIRDRPPRLPRPRPRPKDSPRP | -0.0525 |
| RRIRDRPPRLPRPRPRPMVRPRP | 0.152 |
| RRIRWRPPRLPRPRPRPDDIPRP | -0.163 |
| RRIRERPPRLPRPRPRPFYMPRP | -0.167 |
| RRIRFRPPRLPRPRPRPRMCPRP | 0.0779 |
| RRIRNRPPRLPRPRPRPNRVPRP | -0.0281 |
| RRIRHRPPRLPRPRPRPYICPRP | -0.153 |
| RRIRQRPPRLPRPRPRPGRNPRP | -0.0272 |
| RRIRYRPPRLPRPRPRPINPPRP | -0.269 |
| RRIRLRPPRLPRPRPRPYQVPRP | -0.0302 |
| RRIRGRPPRLPRPRPRPHWSPRP | -0.132 |
| RRIRARPPRLPRPRPRPIWTPRP | -0.144 |
| RRIRKRPPRLPRPRPRPLNDPRP | -0.0546 |
| RRIRKRPPRLPRPRPRPTRVPRP | 0.53 |
| RRIRERPPRLPRPRPRPPDLPRP | 0.16 |
| RRIRTRPPRLPRPRPRPTNPPRP | -0.374 |
| RRIRNRPPRLPRPRPRPNKAPRP | -0.000622 |
| RRIRTRPPRLPRPRPRPDSFPRP | 0.033 |
| RRIRDRPPRLPRPRPRPDMFPRP | 0.0667 |
| RRIRTRPPRLPRPRPRPQTNPRP | -0.199 |
| RRIRHRPPRLPRPRPRPSWSPRP | -0.235 |
| RRIRCRPPRLPRPRPRPVSQPRP | 0.201 |
| RRIRGRPPRLPRPRPRPAAVPRP | 1.51 |
| RRIRQRPPRLPRPRPRPCVMPRP | -0.149 |
| RRIRARPPRLPRPRPRPEPSPRP | 1.22 |

| Sequence | shrunken log2 fold change |
| --- | --- |
| RRIRWRPPRLPRPRPRPYLKPRP | -0.911 |
| RRIRIRPPRLPRPRPRPSYVPRP | -1.22 |
| RRIRHRPPRLPRPRPRPKYAPRP | -0.0413 |
| RRIRGRPPRLPRPRPRPMGDPRP | 0.783 |
| RRIRVRPPRLPRPRPRPYLDPRP | 0.0545 |
| RRIRRRPPRLPRPRPRPRNLPRP | -0.0397 |
| RRIRWRPPRLPRPRPRPQYGPRP | -0.442 |
| RRIRQRPPRLPRPRPRPCDPPRP | -0.0819 |
| RRIRIRPPRLPRPRPRPFKQPRP | -0.246 |
| RRIRARPPRLPRPRPRPIWDPRP | 0.264 |
| RRIRYRPPRLPRPRPRPELRPRP | 0.363 |
| RRIRHRPPRLPRPRPRPQNQPRP | -0.563 |
| RRIRNRPPRLPRPRPRPIEFPRP | -0.235 |
| RRIRVRPPRLPRPRPRPIGLPRP | -0.0479 |
| RRIRVRPPRLPRPRPRPEGNPRP | 0.00902 |
| RRIRNRPPRLPRPRPRPGWMPRP | 0.142 |
| RRIRNRPPRLPRPRPRPTQKPRP | 0.241 |
| RRIRMRPPRLPRPRPRPEHQPRP | 0.0185 |
| RRIRWRPPRLPRPRPRPDWGPRP | -0.0819 |
| RRIRRRPPRLPRPRPRPAIMPRP | 0.275 |
| RRIRTRPPRLPRPRPRPNFNPRP | -0.356 |
| RRIRKRPPRLPRPRPRPLFGPRP | 0.439 |
| RRIRKRPPRLPRPRPRPCERPRP | 0.019 |
| RRIRMRPPRLPRPRPRPECWPRP | 2.25 |
| RRIRWRPPRLPRPRPRPCVWPRP | 0.738 |

| Sequence | shrunken log2 fold change |
| --- | --- |
| RRIRYRPPRLPRPRPRPRWRPRP | 0.585 |
| RRIRRRPPRLPRPRPRPFLNPRP | -0.0441 |
| RRIRCRPPRLPRPRPRPWVGPRP | -0.167 |
| RRIRMRPPRLPRPRPRPWNRPRP | -0.51 |
| RRIRARPPRLPRPRPRPGYCPRP | -0.012 |
| RRIRHRPPRLPRPRPRPIEYPRP | -0.129 |
| RRIRYRPPRLPRPRPRPSKNPRP | -0.722 |
| RRIRQRPPRLPRPRPRPKFDPRP | -0.0817 |
| RRIRYRPPRLPRPRPRPGNTPRP | -1.18 |
| RRIRCRPPRLPRPRPRPFVTPRP | 0.663 |
| RRIRFRPPRLPRPRPRPKKEPRP | 0.0316 |
| RRIRGRPPRLPRPRPRPFFKPRP | 0.186 |
| RRIRCRPPRLPRPRPRPPGDPRP | 0.346 |
| RRIRFRPPRLPRPRPRPGTVPRP | 0.0642 |
| RRIRSRPPRLPRPRPRPCSNPRP | -0.0564 |
| RRIRRRPPRLPRPRPRPYLGPRP | -0.276 |
| RRIRPRPPRLPRPRPRPWFNPRP | -0.541 |
| RRIRDRPPRLPRPRPRPFRGPRP | 0.0499 |
| RRIRHRPPRLPRPRPRPQDNPRP | -0.144 |
| RRIRERPPRLPRPRPRPTDGPRP | 0.158 |
| RRIRWRPPRLPRPRPRPIDDPRP | -0.152 |
| RRIRGRPPRLPRPRPRPGWFPRP | 0.27 |
| RRIRCRPPRLPRPRPRPSFDPRP | -0.282 |
| RRIRKRPPRLPRPRPRPKMIPRP | -0.0764 |
| RRIRERPPRLPRPRPRPTNDPRP | 0.127 |

| Sequence | shrunken log2 fold change |
| --- | --- |
| RRIRHRPPRLPRPRPRPYKGPRP | -0.33 |
| RRIRGRPPRLPRPRPRPCCVPRP | 0.751 |
| RRIRSRPPRLPRPRPRPTWDPRP | 0.53 |
| RRIRRRPPRLPRPRPRPHWPPRP | 0.312 |
| RRIRMRPPRLPRPRPRPLCGPRP | 0.606 |
| RRIRTRPPRLPRPRPRPHDPPRP | -0.283 |
| RRIRLRPPRLPRPRPRPVQKPRP | 0.113 |
| RRIRGRPPRLPRPRPRPCGPPRP | 1.29 |
| RRIRGRPPRLPRPRPRPHKYPRP | -0.216 |
| RRIRCRPPRLPRPRPRPSNGPRP | -0.113 |
| RRIRQRPPRLPRPRPRPPAEPRP | 0.589 |
| RRIRYRPPRLPRPRPRPNWRPRP | 0.326 |
| RRIRQRPPRLPRPRPRPMNWPRP | -0.0581 |
| RRIRQRPPRLPRPRPRPQWFPRP | 0.0435 |
| RRIRFRPPRLPRPRPRPLIWPRP | -0.13 |
| RRIRHRPPRLPRPRPRPRCWPRP | 0.145 |
| RRIRGRPPRLPRPRPRPMPIPRP | 0.0958 |
| RRIRPRPPRLPRPRPRPVWIPRP | 0.0152 |
| RRIRPRPPRLPRPRPRPHDHPRP | 0.0287 |
| RRIRKRPPRLPRPRPRPMALPRP | -0.00663 |
| RRIRDRPPRLPRPRPRPIQGPRP | 0.00911 |
| RRIRKRPPRLPRPRPRPLEWPRP | -0.0047 |
| RRIRTRPPRLPRPRPRPFRLPRP | -0.365 |
| RRIRIRPPRLPRPRPRPSPKPRP | -0.178 |
| RRIRERPPRLPRPRPRPWFCPRP | -0.375 |
